{"source": "paper PMC7905068", "about": "“Bornyl Diphosphate Synthase From Cinnamomum burmanni and Its Application for (+)-Borneol Biosynthesis in Yeast” (Frontiers in Bioengineering and Biotechnology, 2021)", "proteins": {"B1": {"name": "CbTPS1 (Cinnamomum burmanni) (protein)", "chain": "MALQMTVPFLSSFLPNPRHRPTAHGFIPQERVSKHISCSTTTPTYSTTVPRRSGNYKPSIWDYDFVQSLVSDYKVEAHGTRVEKLKEVVKNLLKETDSSLAQMELIDSLHRLGVRWLFENEIKQVLYTVSSDNTSIEMKKDLHAVSTRFRLLRQHGFKVSTDVFNDFEDEKGCFKPSLSMDIKGMLSLYEASHLAFQGETILDEARAFTHAHLMGIKENIDPIIHKKVEHALDMPLHWRLEKLEARWYMDMYMREEGMNSSLLELAMLHFNIVQATFQTNLKSLSRWWKDLGLGEQLSFSRDRLVECFFWAAAMTSEPQFGRCQEAVAKVVQLTTTIDDIYDVYGTVDELELFTNAVDRWDLEAMEQLPEYMKTCFLALYNSINEIGYGILKEQGRNVIPYLRNAWTELCKAYLVEAKWYSSGYTPMLEEFLQTSWISVGSLPMQTYAFALLGQNLAPESCDFAEQISDILPLAGMLIRFPDDLGTSLDELKRGDVPKSIQCYMHEAGVTEDVARDHIMGLFRETWKKLNEYLVESSIPHAFIDQAMNLGRVSYCTYKHGDGFSDGFGDPGSQEKKMYMSLFVEPIQVDEAKGISFCVDGGYA"}}, "substrate": "CC(C)=CCC/C(C)=C/COP(=O)(O)OP(=O)(O)O", "assay": "GC-MS of products after CIAP dephosphorylation, Michaelis-Menten fit", "assay_type": "biochemical, Cinnamomum burmanni", "conditions": "50 mM HEPES pH 7.2, 10 mM MgCl2, 5 mM DTT, 30 °C, 3 min, 0.125-150 μM GPP"}
{"protein": "B1", "values": [{"measurement": "Km", "value": "5.11 ± 1.70", "unit": "µM"}, {"measurement": "kcat", "value": 0.01, "unit": "s^–1"}]}
